IC50 and Kd data for three sequences are collected here from the Immune Epitope Database (IEDB).

Broadly, the IC50 is the point on the concentration scale where inhibition reaches its midpoint. The Kd is the free concentration of one partner at which half of the binding sites on the other are occupied at equilibrium, for simple one-to-one binding.

One assay addresses HLA-B*53:01. Put plainly: IEDB peptide-MHC binding, purified MHC/competitive/fluorescence; ≥ and ≤ were set here for values at or beyond the usual limits of such assays. The settings on record: source organism: human gammaherpesvirus 4.
Assay [1] concerns the target HLA-B*18:01. Put plainly: IEDB peptide-MHC binding, purified MHC/competitive/fluorescence; filed as Kd, often an IC50 or EC50 that approximates it; ≥ and ≤ were set here for values at or beyond the usual limits of such assays. The conditions noted are these: source organism: Human herpesvirus 4 strain B95-8.
Another assay deals with HLA-B*15:17. In words: IEDB peptide-MHC binding, purified MHC/direct/fluorescence; filed as Kd, often an IC50 or EC50 that approximates it; ≥ and ≤ were set here for values at or beyond the usual limits of such assays.
A further assay addresses HLA-B*57:01. The description is as above.
The target of a further assay is HLA-B*07:02. The description is as above. The conditions noted are these: source organism: Mycobacterium tuberculosis.
A further assay deals with HLA-B*27:05. Described as above.
For another assay, the target named is HLA-B*48:01. The assay is described as above.
A further assay concerns the target HLA-B*46:01. The description is as above.
For assay [2], the target named is HLA-B*18:01. The assay is described as above.
A further assay deals with HLA-B*58:01. The assay is described as above.
The target of a further assay is HLA-A*01:01. Described as above.
The target of a further assay is HLA-A*11:01. The description is as above.
For the next assay, the target named is HLA-A*31:01. Described as above.
For a further assay, the target named is HLA-B*40:01. Described as above.
For the next assay, the target named is HLA-B*15:01. The assay is described as above.
In the next assay the target is HLA-A*02:01. The description is as above. The conditions noted are these: source organism: Mycobacterium tuberculosis.
A further assay deals with HLA-A*68:02. Put plainly: IEDB peptide-MHC binding, purified MHC/competitive/fluorescence; filed as Kd, often an IC50 or EC50 that approximates it; ≥ and ≤ were set here for values at or beyond the usual limits of such assays. The conditions noted are these: source organism: Mycobacterium tuberculosis variant bovis BCG str. Pasteur 1173P2.
The target in assay [3] is HLA-A*69:01. The assay is described as above. The settings on record: source organism: Mycobacterium tuberculosis variant bovis BCG str. Pasteur 1173P2.
For the next assay, the target named is HLA-A*26:03. The description is as above. The settings on record: source organism: Mycobacterium tuberculosis variant bovis BCG str. Pasteur 1173P2.
Another assay addresses HLA-A*26:02. The description is as above. The conditions noted are these: source organism: Mycobacterium tuberculosis variant bovis BCG str. Pasteur 1173P2.
The target of assay [4] is HLA-A*69:01. Put plainly: IEDB peptide-MHC binding, purified MHC/direct/fluorescence; filed as Kd, often an IC50 or EC50 that approximates it; ≥ and ≤ were set here for values at or beyond the usual limits of such assays. The conditions noted are these: source organism: Influenza A virus (A/whooper swan/Mongolia/6/05(H5N1)).
The next assay concerns the target HLA-C*05:01. The description is as above. The conditions noted are these: source organism: Influenza A virus (A/Fort Monmouth/1/1947-mouse adapted(H1N1)).
Another assay addresses HLA-A*03:01. The description is as above. The conditions noted are these: source organism: Influenza A virus (A/whooper swan/Mongolia/6/05(H5N1)).
Another assay addresses HLA-A*26:01. The assay is described as above. The settings on record: source organism: Influenza A virus(A/swine/Shandong/fZC/2003(H9N2)).
A further assay deals with HLA-A*80:01. The description is as above. The conditions noted are these: source organism: Influenza A virus (A/whooper swan/Mongolia/6/05(H5N1)).
A further assay concerns the target HLA-A*02:03. Put plainly: IEDB peptide-MHC binding, purified MHC/competitive/fluorescence; filed as Kd, often an IC50 or EC50 that approximates it; ≥ and ≤ were set here for values at or beyond the usual limits of such assays. The settings on record: source organism: Influenza A virus (A/Fort Monmouth/1/1947-mouse adapted(H1N1)).
The mark [5] stands for this setting: source organism: Mycobacterium tuberculosis.
The mark [6] stands for this setting: source organism: Influenza A virus (A/whooper swan/Mongolia/6/05(H5N1)).

As for LASAMRMLW, in the assay with HLA-B*53:01, the half-inhibitory concentration (IC50) is 0.0783 µM. The Kd in the assay with HLA-B*18:01 [1] amounted to 2.27 µM.
Consider QVFKGVVIR, for which the dissociation constant (Kd) with HLA-B*15:17 (setting [5]), with HLA-B*57:01 (setting [5]), with HLA-B*07:02, with HLA-B*27:05 (setting [5]), with HLA-B*48:01 (setting [5]) and in the assay with HLA-B*46:01 (setting [5]) was ≥ 20 µM throughout. Further, the equilibrium dissociation constant (Kd) is ≥ 20 µM in the assay with HLA-B*18:01 [2] (setting [5]); ≥ 20 µM with HLA-B*58:01 (source organism: Mycobacterium tuberculosis str. Haarlem); ≥ 20 µM with HLA-A*01:01 (setting [5]); 0.694 µM with HLA-A*11:01 (setting [5]); 0.101 µM in the assay with HLA-A*31:01 (setting [5]); ≥ 20 µM with HLA-B*40:01 (setting [5]). The dissociation constant (Kd) with HLA-B*15:01 (setting [5]) was ≥ 20 µM; with HLA-A*02:01, ≥ 20 µM; with HLA-A*68:02, 1.77 µM; in the assay with HLA-A*69:01 [3], ≥ 20 µM; with HLA-A*26:03, ≥ 20 µM; with HLA-A*26:02, ≥ 20 µM.
Turning to SSDDFALIV, the Kd with HLA-B*15:17 (setting [6]) was 0.229 µM; in the assay with HLA-B*57:01 (setting [6]), ≥ 20 µM; in the assay with HLA-B*27:05 (setting [6]) it was ≥ 20 µM; with HLA-A*69:01 [4], 0.0188 µM; in the assay with HLA-C*05:01 it was 0.016 µM; in the assay with HLA-B*48:01 (setting [6]), ≥ 20 µM. Also, the Kd with HLA-A*03:01 was ≥ 20 µM; with HLA-B*46:01 (setting [6]), ≥ 20 µM; in the assay with HLA-B*18:01 [2] (setting [6]) it was ≥ 20 µM; in the assay with HLA-B*58:01 (setting [6]), ≥ 20 µM; in the assay with HLA-A*01:01 (setting [6]), 0.113 µM; with HLA-A*11:01 (setting [6]), ≥ 20 µM. The Kd in the assay with HLA-A*31:01 (setting [6]) is ≥ 20 µM; with HLA-B*40:01 (setting [6]), ≥ 20 µM; in the assay with HLA-B*15:01 (setting [6]) it was ≥ 20 µM; with HLA-A*26:01, ≥ 20 µM; in the assay with HLA-A*80:01, 0.224 µM; with HLA-A*02:03, ≥ 20 µM.
